According to patent EP1808439A2:

Molecular target: epiligrin-ECM^t (trypsin-treated HFK-ECM) (human) (UniProt Q16787)
Test: cell-based or functional assay

Sequence of UniProt Q16787 (Q16787 other isoform, or with tags, fused parts or gaps): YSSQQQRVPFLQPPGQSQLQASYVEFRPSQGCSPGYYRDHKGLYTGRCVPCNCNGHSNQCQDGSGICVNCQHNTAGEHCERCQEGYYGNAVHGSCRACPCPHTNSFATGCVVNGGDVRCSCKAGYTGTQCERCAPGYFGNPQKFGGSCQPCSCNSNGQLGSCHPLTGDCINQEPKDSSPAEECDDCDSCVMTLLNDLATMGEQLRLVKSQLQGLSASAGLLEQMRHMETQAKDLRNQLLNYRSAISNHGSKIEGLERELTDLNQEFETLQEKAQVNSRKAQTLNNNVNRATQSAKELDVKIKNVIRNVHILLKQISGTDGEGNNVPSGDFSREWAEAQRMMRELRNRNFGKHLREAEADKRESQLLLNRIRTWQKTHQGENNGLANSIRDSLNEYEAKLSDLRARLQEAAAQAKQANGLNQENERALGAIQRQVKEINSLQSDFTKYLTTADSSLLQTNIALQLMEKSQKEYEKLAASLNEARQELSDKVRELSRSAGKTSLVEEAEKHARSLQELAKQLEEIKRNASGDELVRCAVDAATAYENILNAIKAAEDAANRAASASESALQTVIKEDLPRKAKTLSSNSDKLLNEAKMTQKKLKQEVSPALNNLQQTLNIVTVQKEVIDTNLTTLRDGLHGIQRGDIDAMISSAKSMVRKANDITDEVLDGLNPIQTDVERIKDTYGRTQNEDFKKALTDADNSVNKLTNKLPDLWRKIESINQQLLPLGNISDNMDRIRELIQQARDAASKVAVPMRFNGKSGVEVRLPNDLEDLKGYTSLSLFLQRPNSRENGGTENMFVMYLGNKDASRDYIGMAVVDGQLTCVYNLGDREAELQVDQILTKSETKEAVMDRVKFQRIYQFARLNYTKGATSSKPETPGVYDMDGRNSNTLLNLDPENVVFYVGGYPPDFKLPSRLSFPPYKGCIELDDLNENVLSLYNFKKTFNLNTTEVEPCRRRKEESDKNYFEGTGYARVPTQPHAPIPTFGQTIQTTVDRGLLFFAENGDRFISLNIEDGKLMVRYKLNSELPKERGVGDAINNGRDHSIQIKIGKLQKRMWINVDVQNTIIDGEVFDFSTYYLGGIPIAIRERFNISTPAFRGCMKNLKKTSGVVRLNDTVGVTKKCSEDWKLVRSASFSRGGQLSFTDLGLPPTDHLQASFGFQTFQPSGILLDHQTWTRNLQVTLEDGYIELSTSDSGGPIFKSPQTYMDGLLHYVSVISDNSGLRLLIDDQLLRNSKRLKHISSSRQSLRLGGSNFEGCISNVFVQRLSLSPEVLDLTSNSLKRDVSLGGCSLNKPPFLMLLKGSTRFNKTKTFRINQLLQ

- % adherent cells, 51Cr-labelled HFK on epiligrin-ECM^t, 4°C, 0 min: 30%
- % adherent cells, 51Cr-labelled HFK on epiligrin-ECM^t, 4°C, 2 min: 28%
- % adherent cells, 51Cr-labelled HFK on epiligrin-ECM^t, 4°C, 5 min: 28%
- % adherent cells, 51Cr-labelled HFK on epiligrin-ECM^t, 4°C, 10 min: 25%
- % adherent cells, 51Cr-labelled HFK on epiligrin-ECM^t, 4°C, 15 min: 37%
- % adherent cells, 51Cr-labelled HFK on epiligrin-ECM^t, 4°C, 25 min: 35%
- % adherent cells, 51Cr-labelled HFK on epiligrin-ECM^t, 4°C, 30 min: 31%
- % adherent cells, 51Cr-labelled HFK on epiligrin-ECM^t, 4°C, 45 min: 30%
- % adherent cells, 51Cr-labelled HFK on epiligrin-ECM^t, 4°C, 60 min: 35%
- % adherent cells, 51Cr-labelled HFK on epiligrin-ECM^t, 37°C, 0 min: 0%
- % adherent cells, 51Cr-labelled HFK on epiligrin-ECM^t, 37°C, 2 min: 10%
- % adherent cells, 51Cr-labelled HFK on epiligrin-ECM^t, 37°C, 5 min: 10%
- % adherent cells, 51Cr-labelled HFK on epiligrin-ECM^t, 37°C, 10 min: 20%
- % adherent cells, 51Cr-labelled HFK on epiligrin-ECM^t, 37°C, 15 min: 26%
- % adherent cells, 51Cr-labelled HFK on epiligrin-ECM^t, 37°C, 25 min: 36%
- % adherent cells, 51Cr-labelled HFK on epiligrin-ECM^t, 37°C, 30 min: 38%
- % adherent cells, 51Cr-labelled HFK on epiligrin-ECM^t, 37°C, 45 min: 50%
- % adherent cells, 51Cr-labelled HFK on epiligrin-ECM^t, 37°C, 60 min: 60%
Substance: integrin α6β4, P23229 24-1130; P16144 28-1822
